Patent publication US20150132254A1 (MIT, published 2015)

T1: soluble murine CD25 (His-tagged recombinant mouse IL-2Rα/CD25, R&D Systems) (mouse, UniProt P01590 22-236, limits assumed)
T1 construct: Bought reagent, described only as soluble and His-tagged; also called soluble CD25; mouse CD25
T1 sequence (looked up): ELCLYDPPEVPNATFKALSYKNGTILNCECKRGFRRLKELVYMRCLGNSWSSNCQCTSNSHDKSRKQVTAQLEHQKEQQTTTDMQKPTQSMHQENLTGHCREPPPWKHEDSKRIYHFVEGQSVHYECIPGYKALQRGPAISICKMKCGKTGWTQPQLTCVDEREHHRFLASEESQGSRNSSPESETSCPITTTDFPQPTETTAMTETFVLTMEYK


What follows are binders tested against T1, soluble murine CD25 (His-tagged …) (assay: yeast surface display, titration with soluble murine CD25).
Experimental: The equilibrium dissociation constant of any particular clone was determined essentially as described (75). […] For picomolar affinity mutants of library 6.2, non-displaying EBY100 cells were spiked in at 90:10 to facilitate pelleting the low numbers of displaying cells. The equilibrium dissociation constant Kd was determined by fitting CD25 concentration and flow cytometry fluorescence data to the monovalent binding isotherm: […]

binding result | Binder
binds | mIL-2 QQ 6.2-10 (yeast-displayed) (ligand, also called reversion mutant) APTSSSTSSSTAEAQQQQQQQQQQQQHLEQLLMDLQELLSRMEDHRNLRLPRMLTFKFYLPEQATELEDLQCLEDELEPLRQVLDLTQSKSFQLEDAENFISNIRVTVVKLKGSDNTFECQFDDEPATVVDFLRRWIAFCQSIISTSPQ
binds | mIL-2 QQ 6.2-4 (yeast-displayed) (ligand, Selective-reversion mutant of a library 6.2 clone; also called reversion mutant) APTSSSTSSSTAEAQQQQQQQQQQQQHLEQLLMDLQELLSRMEDSRNLRLPRMLTFKFYLPKQATELEDLQCLEDELEPLRQVLDLTQSKSFQLEDAENFISNIRVTVVKLKGSDNTFECQFDDEPATVVGFLRRWIAFCQSIISTSPQ
binds | mIL-2 QQ 6.2-13 (yeast-displayed) (ligand, Selective-reversion mutant of a library 6.2 clone; also called reversion mutant) APTSSSTSSSTAEAQQQQQQQQQQQQHLEQLLMDLQELLSRMEDHRNLRLPRMLTFKFYLPEQATELKDLQCLEDELEPLRQVLDLTQSKSFQLEDAENFISNIRVTVVKLKGSDNTFECQFDDEPATVVDFLRRWIAFCQSIISTSPQ
binds | mIL-2 QQ 6.2-11 (yeast-displayed) (ligand, Selective-reversion mutant of a library 6.2 clone; also called reversion mutant) APTSSSTSSSTAEAQQQQQQQQQHLEQLLMDLQELLSRMEDSRNLRLPRMLTFKFYLPEQATELKDLQCLEDELEPLRQVLDLTQSKSFQLEDAENFISNIRVTVVKLKGSDNTFECQFDDEPATVVDFLRRWIAFCQSIISTSPQ
binds | mIL-2 QQ 6.2-8 (yeast-displayed) (ligand, Selective-reversion mutant of a library 6.2 clone; also called reversion mutant) APTSSSTSSSTAEAQQQQQQQQHLEQLLMDLQELLSRMEDHRNLRLPRMLTFKFYLPKQATELEDLQCLEDELEPLRQVLDLTQSKSFQLEDAENFISNIRVTVVKLKGSDNTFECQFDDEPATVVDFLRRWIAFCQSIISTSPR

What follows are binders tested against T1, soluble murine CD25 (His-tagged …) (assay: yeast surface display, flow cytometry).
Experimental: EBY100 yeast harboring each of these clones were grown and induced as described (Chao et al. Nat Protocols 2006; 1(2):755-768). CD25 binding capacity was determined by labeling induced yeast with 50 nM soluble murine CD25 (R&D Systems). Proper protein folding was determined by labeling yeast displaying IL-2 variants before and after thermal denaturation with anti-mouse IL-2 antibodies. […] Anti-mouse IL-2 antibodies used were S4B6 (gift of Jianzhu Chen Lab, MIT), JES6-1A12, and JES6-5H4 (eBioscience).

Binder | binding result
wild-type murine IL-2 (yeast-displayed) (ligand, Aga2p fusion with HA and c-myc tags; also called mIL-2; mouse IL-2) APTSSSTSSSTAEAQQQQQQQQQQQQHLEQLLMDLQELLSRMENYRNLKLPRMLTFKFYLPKQATELKDLQCLEDELGPLRHVLDLTQSKSFQLEDAENFISNIRVTVVKLKGSDNTFECQFDDESATVVDFLRRWIAFCQSIISTSPQ | binds
mouse IL-2 E76R (yeast-displayed) (ligand, also called E76 mutant) APTSSSTSSSTAEAQQQQQQQQQQQQHLEQLLMDLQELLSRMENYRNLKLPRMLTFKFYLPKQATELKDLQCLEDRLGPLRHVLDLTQSKSFQLEDAENFISNIRVTVVKLKGSDNTFECQFDDESATVVDFLRRWIAFCQSIISTSPQ | no binding (tested: 5 or 50 nM soluble CD25)
mouse IL-2 E76F (yeast-displayed) (ligand, also called E76 mutant) APTSSSTSSSTAEAQQQQQQQQQQQQHLEQLLMDLQELLSRMENYRNLKLPRMLTFKFYLPKQATELKDLQCLEDFLGPLRHVLDLTQSKSFQLEDAENFISNIRVTVVKLKGSDNTFECQFDDESATVVDFLRRWIAFCQSIISTSPQ | no binding (tested: 5 or 50 nM soluble CD25)

More lines, now with the values ahead:

binding result | Binder
no binding (tested: 50 nM) | mouse IL-2 E76G (yeast-displayed) (ligand, also called E76G IL-2) APTSSSTSSSTAEAQQQQQQQQQQQQHLEQLLMDLQELLSRMENYRNLKLPRMLTFKFYLPKQATELKDLQCLEDGLGPLRHVLDLTQSKSFQLEDAENFISNIRVTVVKLKGSDNTFECQFDDESATVVDFLRRWIAFCQSIISTSPQ
no binding (tested: 50 nM) | mouse IL-2 E76A (yeast-displayed) (ligand, also called E76A IL-2) APTSSSTSSSTAEAQQQQQQQQQQQQHLEQLLMDLQELLSRMENYRNLKLPRMLTFKFYLPKQATELKDLQCLEDALGPLRHVLDLTQSKSFQLEDAENFISNIRVTVVKLKGSDNTFECQFDDESATVVDFLRRWIAFCQSIISTSPQ

What follows are binders tested against T1, soluble murine CD25 (His-tagged …) (assay: not stated (legend of the schematic FIG. 5)).

Kd | Binder
~50 nM | D265AFc/IL-2 (monovalent mouse IgG2a D265A Fc / wild-type mouse IL-2 heterodimer) (Fc fusion, also called D265A Fc/wt mIL-2) chain 1: EPRVPITQNPCPPLKECPPCAAPDLLGGPSVFIFPPKIKDVLMISLSPMVTCVVVAVSEDDPDVQISWFVNNVEVHTAQTQTHREDYNSTLRVVSALPIQHQDWMSGKEFKCKVNNRALPSPIEKTISKPRGPVRAPQVYVLPPPAEEMTKKEFSLTCMITGFLPAEIAVDWTSNGRTEQNYKNTATVLDSDGSYFMYSKLRVQKSTWERGSLFACSVVHEGLHNHLTTKTISRSLGKGGGSAPTSSSTSSSTAEAQQQQQQQQQQQQHLEQLLMDLQELLSRMENYRNLKLPRMLTFKFYLPKQATELKDLQCLEDELGPLRHVLDLTQSKSFQLEDAENFISNIRVTVVKLKGSDNTFECQFDDESATVVDFLRRWIAFCQSIISTSPQHHHHHH chain 2: EPRVPITQNPCPPLKECPPCAAPDLLGGPSVFIFPPKIKDVLMISLSPMVTCVVVAVSEDDPDVQISWFVNNVEVHTAQTQTHREDYNSTLRVVSALPIQHQDWMSGKEFKCKVNNRALPSPIEKTISKPRGPVRAPQVYVLPPPAEEMTKKEFSLTCMITGFLPAEIAVDWTSNGRTEQNYKNTATVLDSDGSYFMYSKLRVQKSTWERGSLFACSVVHEGLHNHLTTKTISRSLGKGGGSDYKDDDDK
